Experimental data reported in US20210403579A1 (DELINIA, published 2021).

Target: T1, Mouse ST2 (mouse, UniProt P14719 27-332, limits assumed)
T1 construct: also called mouse ST2 protein
T1 sequence (looked up): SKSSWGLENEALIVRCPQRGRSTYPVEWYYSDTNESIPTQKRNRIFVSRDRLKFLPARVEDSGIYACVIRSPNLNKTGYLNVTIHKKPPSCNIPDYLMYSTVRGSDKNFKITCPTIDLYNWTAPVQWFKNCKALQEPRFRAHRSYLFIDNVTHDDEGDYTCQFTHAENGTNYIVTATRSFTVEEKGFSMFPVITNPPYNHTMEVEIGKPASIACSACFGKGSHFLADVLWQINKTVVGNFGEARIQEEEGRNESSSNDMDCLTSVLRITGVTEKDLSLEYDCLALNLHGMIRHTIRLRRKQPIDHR
Assay: SPR (Carterra), antibody immobilized, ST2 analyte, 1:1
Protocol: Binding of the reformatted human ST2 antibodies to the human and mouse ST2 proteins was evaluated by surface plasmon resonance (SPR), using a high throughput antibody screening and characterization platform from Carterra (Salt Lake City, Utah).

Binder	Kd	koff	kon
Human ST2 IgG1 Antibody 19 (antibody, V domains shown, IgG1, kappa; also called ST2 Antibody 19) VH: EVQLLESGGGLVQPGGSLRLSCAASGFSFSHAWMSWVRQAPGKGLEWVSVIHSGGSTFYADSVKGRFTISRDNSKNTLYLQMNSLRAEDTAVYYCARIGKGGGFDYWGQGTLVTVSS VL: DIQMTQSPSSLSASVGDRVTITCRASQDIGSWLAWYQQKPGKAPKLLIYAASSLQSGVPSRFSGSGSGTDFTLTISSLQPEDFATYYCQQSYSTPPTFGQGTKVEIKR	311 nM	0.11 s⁻¹	370000 M⁻¹ s⁻¹
Human ST2 IgG1 Antibody 20 (antibody, V domains shown, IgG1, kappa; also called ST2 Antibody 20) VH: EVQLLESGAEVKKPGSSVKVSCKASGGTFSSYAISWVRQAPGQGLEWMGGIIPIFGTANYAQKFQGRVTITADESTSTAYMELSSLRSEDTAVYYCASGFYSNDLYYYYYMDVWGKGTTVTVSS VL: DIQMTQSPSSLSASVGDRVTITCRASQSISSWLAWYQQKPGKAPKLLIYDASNLKTGVPSRFSGSGSGTDFTLTISSLQPEDFATYYCQQTYAIPLTFGGGTKVEIKR	2200 nM	0.17 s⁻¹	77000 M⁻¹ s⁻¹
Human ST2 IgG1 Antibody 21 (antibody, V domains shown, IgG1, kappa; also called ST2 Antibody 21) VH: QVQLVQSGAEVKKPGASVKVSCKASGYTFSNHYMHWVRQAPGQGLEWMGWVNPTSGNTGYAQKFQGRVTMTRDTSTSTVYMELSSLRSEDTAVYYCARDLGVTYFDLWGRGTLVTVSS VL: DIQMTQSPSSLSASVGDRVTITCRASQGISSWLAWYQQKPGKAPKLLIYEASHLETGVPSRFSGSGSGTDFTLTISSLQPEDFATYYCLQDYNYPLTFGGGTKVEIKR	999 nM	0.0085 s⁻¹	8500 M⁻¹ s⁻¹
Human ST2 IgG1 Antibody 25 (antibody, V domains shown, IgG1, kappa; also called ST2 Antibody 25) VH: QVQLVQSGAEVKKPGSSVKVSCKASGGTFSNYAISWVRQAPGQGLEWMGWISAYNGNTNYAQKFQGRVTMTRDTSTSTVYMELSSLRSEDTAVYYCARSTNALDYWGQGTLVTVSS VL: DIQMTQSPSSLSASVGDRVTITCRASQGIRSNLDWYQQKPGKAPKLLISIVSNLGSGVPSRFSGSGSGTDFTLTISSLQPEDFATYYCLQHNSNPPTFGGGTKVEIKR	322 nM	0.064 s⁻¹	200000 M⁻¹ s⁻¹
Human ST2 IgG1 Antibody 29 (antibody, V domains shown, IgG1, kappa; also called ST2 Antibody 29) VH: QVQLVQSGAEVKKPGASVKVSCKASGGTFTGYFIHWVRQAPGQGLEWMGWMNPNSGNTGYAQKFQGRVTMTRDTSTSTVYMELSSLRSEDTAMYYCAREGQGVVPVDYWGQGTLVTVSS VL: DIQMTQSPSSLSASVGDRVTITCRASQSISSWLAWYQQKPGKAPKLLIYDATNLETGVPSRFSGSGSGTDFTLTISSLQPEDFATYYCLQDYNYPLTFGQSTKVEIKR	751 nM	0.0045 s⁻¹	5900 M⁻¹ s⁻¹
Human ST2 IgG1 Antibody 30 (antibody, V domains shown, IgG1, kappa; also called ST2 Antibody 30) VH: QVQLVQSGAEVKKPGSSVKVSCKASGYTFTTYGITWVRQAPGQGLEWMGGIIPIFGTANYAQKFQGRVTITADESTSTAYMELSSLRSEDTAVYYCAKLSGSSGSWDYYYYYGMDVWGQGTLVTVSS VL: DIVMTQSPLSLPVTPGEPASISCRSSQSLLHSNGYNYLDWYLQKPGQSPQLLIYAASNLQSGVPDRFSGSGSGTDFTLKISRVEAEDVGVYYCMQALQTPITFGQSTRLEIKR	2700 nM	0.13 s⁻¹	48000 M⁻¹ s⁻¹
Human ST2 IgG1 Antibody 34 (antibody, V domains shown, IgG1, kappa; also called ST2 Antibody 34) VH: QVQLVQSGAEVKKPGASVKVSCKASGQTFTDYAINWVRQAPGQGLEWMGWMNPNSGNTGYAQKFQGRVTMTRDTSTSTVYMELSSLRSEDTAVYYCARETLEQQLPFDYWGQGTLVTVSS VL: DIQMTQSPSSLSASVGDRVTITCRASQSISSWLAWYQQKPGKAPKLLIYAASTLQSGVPSRFSGSGSGTDFTLTISSLQPEDFATYYCQQYYSTLYTFGQGTKVEIKR	126 nM	0.0019 s⁻¹	15000 M⁻¹ s⁻¹
Human ST2 IgG1 Antibody 35 (antibody, V domains shown, IgG1, kappa; also called ST2 Antibody 35) VH: QVQLVQSGAEVKKPGASVKVSCKASAYTFTSYGISWLRQAPGQGLEWMGWINPNSGNTGYAHKFQGRVTMTRDTSTSTVYMELSSLRSEDTAVYYCARGGSGWPTWGQGTLVTVSS VL: DIQMTQSPSSLSASVGDRVTITCQASQDISNYLNWYQQKPGKAPKLLIYGASSLQSGVPSRFSGSGSGTDFTLTISSLQPEDFATYYCQQANTFPFTFGPGTKVDIKR	107 nM	0.018 s⁻¹	170000 M⁻¹ s⁻¹
